Article PMC8136776

What was measured:
mPOLγA A449T;mPOLγB = mPOLγA A449T;mPOLγB (Mus musculus;Mus musculus, UniProt P54099;Q9QZM2 26-1218;17-459, A450T|); experiment: EMSA
mPOLγA A449T = biological target: T1, mPOLγA A449T (Mus musculus, UniProt P54099 26-1218, A450T); experiment: EMSA
T1 sequence: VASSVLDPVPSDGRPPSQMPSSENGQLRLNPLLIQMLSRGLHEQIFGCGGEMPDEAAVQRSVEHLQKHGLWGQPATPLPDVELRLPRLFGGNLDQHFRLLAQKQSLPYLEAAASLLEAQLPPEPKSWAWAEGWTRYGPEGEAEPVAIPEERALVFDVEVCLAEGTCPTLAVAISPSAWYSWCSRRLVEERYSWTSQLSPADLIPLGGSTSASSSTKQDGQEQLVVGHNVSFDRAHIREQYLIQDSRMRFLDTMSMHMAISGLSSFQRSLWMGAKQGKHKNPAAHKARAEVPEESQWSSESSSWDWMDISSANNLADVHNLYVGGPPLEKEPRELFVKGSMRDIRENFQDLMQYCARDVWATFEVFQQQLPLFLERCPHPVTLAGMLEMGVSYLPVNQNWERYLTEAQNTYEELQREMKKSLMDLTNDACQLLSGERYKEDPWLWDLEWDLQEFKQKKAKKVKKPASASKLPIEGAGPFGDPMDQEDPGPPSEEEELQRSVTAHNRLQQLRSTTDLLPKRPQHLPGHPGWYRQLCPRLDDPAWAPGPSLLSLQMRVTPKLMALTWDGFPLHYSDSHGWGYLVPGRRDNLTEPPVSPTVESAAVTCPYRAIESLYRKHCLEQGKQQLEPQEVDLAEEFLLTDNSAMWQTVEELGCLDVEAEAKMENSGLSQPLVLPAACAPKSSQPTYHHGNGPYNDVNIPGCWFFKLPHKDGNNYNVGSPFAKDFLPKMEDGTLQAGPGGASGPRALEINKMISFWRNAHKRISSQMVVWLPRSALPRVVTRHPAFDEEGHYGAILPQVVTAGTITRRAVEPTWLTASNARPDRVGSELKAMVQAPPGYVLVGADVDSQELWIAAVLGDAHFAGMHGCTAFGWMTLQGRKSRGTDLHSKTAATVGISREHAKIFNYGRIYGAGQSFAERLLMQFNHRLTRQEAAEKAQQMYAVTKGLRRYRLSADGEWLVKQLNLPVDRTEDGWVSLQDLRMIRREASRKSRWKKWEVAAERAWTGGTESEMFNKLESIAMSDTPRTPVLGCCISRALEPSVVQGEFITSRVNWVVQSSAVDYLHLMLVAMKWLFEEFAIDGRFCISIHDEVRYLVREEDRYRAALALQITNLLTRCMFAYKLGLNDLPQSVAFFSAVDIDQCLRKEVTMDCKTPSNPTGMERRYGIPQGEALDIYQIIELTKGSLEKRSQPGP

Chain of mPOLγA A449T;mPOLγB (Q9QZM2 17-459, stated change not applied, one chain of several): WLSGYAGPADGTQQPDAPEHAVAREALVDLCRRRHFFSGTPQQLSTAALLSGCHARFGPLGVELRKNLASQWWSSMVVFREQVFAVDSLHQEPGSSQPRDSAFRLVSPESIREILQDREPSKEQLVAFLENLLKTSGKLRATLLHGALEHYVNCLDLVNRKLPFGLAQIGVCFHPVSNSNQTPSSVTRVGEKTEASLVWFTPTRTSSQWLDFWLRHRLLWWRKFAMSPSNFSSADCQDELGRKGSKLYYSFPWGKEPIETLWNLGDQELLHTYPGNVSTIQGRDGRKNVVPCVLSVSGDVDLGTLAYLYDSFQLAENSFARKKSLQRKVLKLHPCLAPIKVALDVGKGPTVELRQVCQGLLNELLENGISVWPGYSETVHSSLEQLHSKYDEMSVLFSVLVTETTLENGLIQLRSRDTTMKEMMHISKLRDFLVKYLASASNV

B1: 36/21-nt primer-template (mixed)
DNA 1: TTTTTTTTTTATCCGGGCTCCTCTAGACTCGACCGC
DNA 2: GCGGTCGAGTCTAGAGGAGCC
With B1 as the binder, how does the binding signal (mPOLγA A449T;mPOLγB) read?
The binding signal was 1.75 fold lower binding than WT holoenzyme.

What about the binding signal (mPOLγA A449T) of the same binder?
The binding signal was ~3.4 fold lower binding than WT.
